Measurements taken from the supplement of paper PMC5998384.

How the values were obtained:
HeLa Kyoto [1] = test: solubility change mitosis vs G1/S (difference of NP-40 vs SDS log2 ratios) (log2 ratio difference); higher = more soluble in mitosis
HeLa Kyoto [2] = test: solubility in G1/S (NP-40 vs SDS abundance) (log2 ratio); higher = more soluble; settings: cell cycle stage: G1/S
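For solubility change mitosis vs G1/S (difference of NP-40 vs SDS log2 ratios) in this document: synchronized HeLa Kyoto cells (double thymidine block for G1/S, nocodazole release for mitosis), protein amounts in NP-40 versus SDS lysates quantified by mass spectrometry, three biological replicates.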
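For solubility in G1/S (NP-40 vs SDS abundance) in this document: HeLa Kyoto cells arrested at G1/S by double thymidine block, proteins quantified by TMT10plex mass spectrometry in mild NP-40 versus SDS extracts, three biological replicates.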

Sequence	solubility change mitosis (log2) (HeLa Kyoto [1])	solubility in G1/S (log2) (HeLa Kyoto [2])
MSLERELRQLSKAKAKAQRAGQRREEAALCHQLGELLAGHGRYAEALEQHWQELQLRERADDPLGCAVAHRKIGERLAEMEDYPAALQHQHQYLELAHSLRNHTELQRAWATIGRTHLDIYDHCQSRDALLQAQAAFEKSLAIVDEELEGTLAQGELNEMRTRLYLNLGLTFESLQQTALCNDYFRKSIFLAEQNHLYEDLFRARYNLGTIHWRAGQHSQAMRCLEGARECAHTMRKRFMESECCVVIAQVLQDLGDFLAAKRALKKAYRLGSQKPVQRAAICQNLQHVLAVVRLQQQLEEAEGRDPQGAMVICEQLGDLFSKAGDFPRAAEAYQKQLRFAELLDRPGAERAIIHVSLATTLGDMKDHHGAVRHYEEELRLRSGNVLEEAKTWLNIALSREEAGDAYELLAPCFQKALSCAQQAQRPQLQRQVLQHLHTVQLRLQPQEAPETETRLRELSVAEDEDEEEEAEEAAATAESEALEAGEVELSEGEDDTDGLTPQLEEDEELQGHLGRRKGSKWNRRNDMGETLLHRACIEGQLRRVQDLVRQGHPLNPRDYCGWTPLHEACNYGHLEIVRFLLDHGAAVDDPGGQGCEGITPLHDALNCGHFEVAELLLERGASVTLRTRKGLSPLETLQQWVKLYRRDLDLETRQKARAMEMLLQAAASGQDPHSSQAFHTPSSLLFDPETSPPLSPCPEPPSNSTRLPEASQAHVRVSPGQAAPAMARPRRSRHGPASSSSSSEGEDSAGPARPSQKRPRCSATAQRVAAWTPGPASNREAATASTSRAAYQAAIRGVGSAQSRLGPGPPRGHSKALAPQAALIPEEECLAGDWLELDMPLTRSRRPRPRGTGDNRRPSSTSGSDSEESRPRARAKQVRLTCMQSCSAPVNAGPSSLASEPPGSPSTPRVSEPSGDSSAAGQPLGPAPPPPIRVRVQVQDHLFLIPVPHSSDTHSVAWLAEQAAQRYYQTCGLLPRLTLRKEGALLAPQDLIPDVLQSNDEVLAEVTSWDLPPLTDRYRRACQSLGQGEHQQVLQAVELQGLGLSFSACSLALDQAQLTPLLRALKLHTALRELRLAGNRLGDKCVAELVAALGTMPSLALLDLSSNHLGPEGLRQLAMGLPGQATLQSLEELDLSMNPLGDGCGQSLASLLHACPLLSTLRLQACGFGPSFFLSHQTALGSAFQDAEHLKTLSLSYNALGAPALARTLQSLPAGTLLHLELSSVAAGKGDSDLMEPVFRYLAKEGCALAHLTLSANHLGDKAVRDLCRCLSLCPSLISLDLSANPEISCASLEELLSTLQKRPQGLSFLGLSGCAVQGPLGLGLWDKIAAQLRELQLCSRRLCAEDRDALRQLQPSRPGPGECTLDHGSKLFFRRL [TONSL]	0.119	-0.116
MSQKQEEENPAEETGEEKQDTQEKEGILPERAEEAKLKAKYPSLGQKPGGSDFLMKRLQKGQKYFDSGDYNMAKAKMKNKQLPSAGPDKNLVTGDHIPTPQDLPQRKSSLVTSKLAGGQVE [ENSA]	0.654	-0.789
MSRQAKDDFLRHYTVSDPRTHPKGYTEYKVTAQFISKKDPEDVKEVVVWKRYSDFRKLHGDLAYTHRNLFRRLEEFPAFPRAQVFGRFEASVIEERRKGAEDLLRFTVHIPALNNSPQLKEFFRGGEVTRPLEVSRDLHILPPPLIPTPPPDDPRLSQLLPAERRGLEELEVPVDPPPSSPAQEALDLLFNCESTEEASGSPARGPLTEAELALFDPFSKEEGAAPSPTHVAELATMEVESARLDQEPWEPGGQEEEEDGEGGPTPAYLSQATELITQALRDEKAGAYAAALQGYRDGVHVLLQGVPSDPLPARQEGVKKKAAEYLKRAEEILRLHLSQLPP [SNX15]	-0.104	0.365
MSRRRFDCRSISGLLTTTPQIPIKMENFNNFYILTSKELGRGKFAVVRQCISKSTGQEYAAKFLKKRRRGQDCRAEILHEIAVLELAKSCPRVINLHEVYENTSEIILILEYAAGGEIFSLCLPELAEMVSENDVIRLIKQILEGVYYLHQNNIVHLDLKPQNILLSSIYPLGDIKIVDFGMSRKIGHACELREIMGTPEYLAPEILNYDPITTATDMWNIGIIAYMLLTHTSPFVGEDNQETYLNISQVNVDYSEETFSSVSQLATDFIQSLLVKNPEKRPTAEICLSHSWLQQWDFENLFHPEETSSSSQTQDHSVRSSEDKTSKSSCNGTCGDREDKENIPEDSSMVSKRFRFDDSLPNPHELVSDLLC [STK17B]	-0.161	0.0558
